Source: PMC9482650, “Quantitative fragmentomics allow affinity mapping of interactomes” (Nature Communications, 2022)

Assays:
Assay in all cases: holdup assay
Parameters in all cases: key: below the threshold = too weak to quantify, mostly under pKd 3.1 to 4
Inadl_9, Q8NI35 = target: Inadl_9, Q8NI35
ARHGAP21, Q5T5U3 = target: T1, ARHGAP21, Q5T5U3
T1 sequence (Q5T5U3 45-169, limits assumed, looked up): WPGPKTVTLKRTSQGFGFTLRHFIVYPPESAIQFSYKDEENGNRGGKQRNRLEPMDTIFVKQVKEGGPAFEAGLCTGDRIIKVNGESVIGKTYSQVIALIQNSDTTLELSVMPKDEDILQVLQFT

PDZRN4_1, Q6ZMN7 = target: PDZRN4_1, Q6ZMN7
PICK1, Q9NRD5 = target: PICK1, Q9NRD5
HTRA3, P83110 = target: T2, HTRA3, P83110
T2 sequence (P83110 354-453, limits assumed, looked up): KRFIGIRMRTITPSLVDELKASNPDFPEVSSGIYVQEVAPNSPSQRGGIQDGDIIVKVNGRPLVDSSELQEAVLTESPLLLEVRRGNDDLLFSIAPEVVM

SNTG1, Q9NSN8 = target: T3, SNTG1, Q9NSN8
T3 sequence (Q9NSN8 52-150, limits assumed, looked up): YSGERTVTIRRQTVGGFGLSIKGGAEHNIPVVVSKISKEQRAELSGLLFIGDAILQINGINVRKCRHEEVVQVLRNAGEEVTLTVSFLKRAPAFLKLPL

LRRC7, Q96NW7 = target: T4, LRRC7, Q96NW7
T4 sequence (Q96NW7 1440-1537, limits assumed, looked up): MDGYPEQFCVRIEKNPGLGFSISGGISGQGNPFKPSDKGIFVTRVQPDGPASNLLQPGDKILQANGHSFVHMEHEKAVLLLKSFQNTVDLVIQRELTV

LNX2_3, Q8N448 = target: T5, LNX2_3, Q8N448
T5 sequence (Q8N448 463-564, limits assumed, looked up): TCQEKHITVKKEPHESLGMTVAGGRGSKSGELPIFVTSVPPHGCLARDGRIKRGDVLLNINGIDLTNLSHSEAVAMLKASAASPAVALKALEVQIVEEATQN

TJP2_1, Q9UDY2 = target: TJP2_1, Q9UDY2
MAGI1_1, Q96QZ7 = target: MAGI1_1, Q96QZ7
Inadl_1, Q8NI35 = target: Inadl_1, Q8NI35
SNTB1, Q13884 = target: T6, SNTB1, Q13884
T6 sequence (Q13884 107-205, limits assumed, looked up): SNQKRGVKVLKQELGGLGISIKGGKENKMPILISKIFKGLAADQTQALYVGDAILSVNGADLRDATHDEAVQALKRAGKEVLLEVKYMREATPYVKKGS

TIAM2, Q8IVF5 = target: T7, TIAM2, Q8IVF5
T7 sequence (Q8IVF5 885-986, limits assumed, looked up): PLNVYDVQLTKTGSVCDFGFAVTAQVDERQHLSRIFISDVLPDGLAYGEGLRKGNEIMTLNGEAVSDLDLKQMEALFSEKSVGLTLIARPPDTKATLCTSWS

MAGI2_6, Q86UL8 = target: MAGI2_6, Q86UL8
CARD11, Q9BXL7 = target: T8, CARD11, Q9BXL7
T8 sequence (Q9BXL7 662-765, limits assumed, looked up): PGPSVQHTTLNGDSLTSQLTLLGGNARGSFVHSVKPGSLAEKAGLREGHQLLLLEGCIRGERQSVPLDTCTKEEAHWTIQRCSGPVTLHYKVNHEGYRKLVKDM

LIN7A, O14910 = target: T9, LIN7A, O14910
T9 sequence (O14910 103-200, limits assumed, looked up): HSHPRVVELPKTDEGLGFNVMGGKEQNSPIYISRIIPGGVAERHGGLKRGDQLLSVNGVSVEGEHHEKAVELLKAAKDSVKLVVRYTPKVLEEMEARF

NHERF3_4, Q5T2W1 = target: T10, NHERF3_4, Q5T2W1
T10 sequence (Q5T2W1 373-468, limits assumed, looked up): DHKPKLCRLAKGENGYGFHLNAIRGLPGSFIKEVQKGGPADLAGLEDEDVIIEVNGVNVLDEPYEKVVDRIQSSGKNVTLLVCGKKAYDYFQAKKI

GRIP1_5, Q9Y3R0 = target: T11, GRIP1_5, Q9Y3R0
T11 sequence (Q9Y3R0 568-668, limits assumed, looked up): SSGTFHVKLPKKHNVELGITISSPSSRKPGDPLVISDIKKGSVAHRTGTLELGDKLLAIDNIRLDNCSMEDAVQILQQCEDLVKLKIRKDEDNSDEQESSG

MPDZ_5, O75970 = target: T12, MPDZ_5, O75970
T12 sequence (O75970 695-796, limits assumed, looked up): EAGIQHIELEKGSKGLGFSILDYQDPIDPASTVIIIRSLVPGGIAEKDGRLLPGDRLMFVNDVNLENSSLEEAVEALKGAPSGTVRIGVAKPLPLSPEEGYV

GRID2IP_1, A4D2P6 = target: GRID2IP_1, A4D2P6
GRASP, Q7Z6J2 = target: GRASP, Q7Z6J2
AHNAK1, Q09666 = target: AHNAK1, Q09666
LIN7B, Q9HAP6 = target: T13, LIN7B, Q9HAP6
T13 sequence (Q9HAP6 88-185, limits assumed, looked up): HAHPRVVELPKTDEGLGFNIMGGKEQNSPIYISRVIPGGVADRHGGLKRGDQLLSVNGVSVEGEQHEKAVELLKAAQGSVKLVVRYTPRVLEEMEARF

IL16_4, Q14005 = target: IL16_4, Q14005
[1] = plain residues with an end cap or a label only (N-terminal biotin on a linker: ado-ado)
[2] = plain residues with an end cap or a label only (N-terminal biotin on a linker: ttds)
[3] = plain residues with an end cap or a label only (N-terminal biotin on a linker: ahx)

Inadl_1, Q8NI35, sequence (Q8NI35 113-229): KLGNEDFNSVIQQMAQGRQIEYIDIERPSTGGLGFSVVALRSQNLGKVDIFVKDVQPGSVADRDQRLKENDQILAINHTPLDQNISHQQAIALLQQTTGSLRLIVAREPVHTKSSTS
AHNAK1, Q09666, sequence (Q09666 4-100): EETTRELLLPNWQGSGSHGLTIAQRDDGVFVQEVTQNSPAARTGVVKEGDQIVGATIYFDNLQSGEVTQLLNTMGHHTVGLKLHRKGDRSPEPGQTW
GRID2IP_1, A4D2P6, sequence (A4D2P6 1-87): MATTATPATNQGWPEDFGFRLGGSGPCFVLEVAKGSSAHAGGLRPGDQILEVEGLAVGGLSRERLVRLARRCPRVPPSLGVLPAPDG
Inadl_9, Q8NI35, sequence (Q8NI35 1530-1615): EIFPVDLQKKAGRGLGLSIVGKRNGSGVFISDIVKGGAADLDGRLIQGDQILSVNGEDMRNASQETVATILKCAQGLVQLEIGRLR
GRASP, Q7Z6J2, sequence (Q7Z6J2 96-193): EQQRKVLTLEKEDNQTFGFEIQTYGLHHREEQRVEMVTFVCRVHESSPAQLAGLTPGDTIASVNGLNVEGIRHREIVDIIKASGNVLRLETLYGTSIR
MAGI1_1, Q96QZ7, sequence (Q96QZ7 1-106): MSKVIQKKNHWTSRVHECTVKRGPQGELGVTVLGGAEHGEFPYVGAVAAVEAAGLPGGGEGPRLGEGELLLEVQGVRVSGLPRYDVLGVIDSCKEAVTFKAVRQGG
PDZRN4_1, Q6ZMN7, sequence (Q6ZMN7 213-318): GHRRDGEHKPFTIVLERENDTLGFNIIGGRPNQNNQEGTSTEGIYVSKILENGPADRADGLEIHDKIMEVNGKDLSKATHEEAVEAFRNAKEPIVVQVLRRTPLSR
MAGI2_6, Q86UL8, sequence (Q86UL8 1141-1229): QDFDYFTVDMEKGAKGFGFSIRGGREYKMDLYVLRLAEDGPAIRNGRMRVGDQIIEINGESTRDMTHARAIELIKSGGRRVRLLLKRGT
PICK1, Q9NRD5, sequence (Q9NRD5 17-115): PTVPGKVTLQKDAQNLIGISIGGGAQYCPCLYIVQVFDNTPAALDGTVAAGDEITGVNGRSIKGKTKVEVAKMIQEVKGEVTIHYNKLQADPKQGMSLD
IL16_4, Q14005, sequence (Q14005 1229-1329): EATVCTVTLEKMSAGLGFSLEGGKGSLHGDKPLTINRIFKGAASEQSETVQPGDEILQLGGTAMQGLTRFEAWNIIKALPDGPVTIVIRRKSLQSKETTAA
TJP2_1, Q9UDY2, sequence (Q9UDY2 24-128): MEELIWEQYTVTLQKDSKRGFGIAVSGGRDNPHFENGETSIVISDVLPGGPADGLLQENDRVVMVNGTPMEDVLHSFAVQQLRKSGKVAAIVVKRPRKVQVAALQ

What does the source list for PLSPEQPTKL [TRIM50, Q86XT4]?
pKd (Inadl_9, Q8NI35; [1]): below the threshold; pKd (ARHGAP21, Q5T5U3; [1]): below the threshold; pKd (PDZRN4_1, Q6ZMN7; [1]): below the threshold; pKd (PICK1, Q9NRD5; [1]): below the threshold; pKd (HTRA3, P83110; [1]): below the threshold; pKd (SNTG1, Q9NSN8; [1]): below the threshold; pKd (LRRC7, Q96NW7; [1]): below the threshold; pKd (LNX2_3, Q8N448; [1]): below the threshold; pKd (TJP2_1, Q9UDY2; [1]): below the threshold; pKd (MAGI1_1, Q96QZ7; [1]): below the threshold; pKd (Inadl_1, Q8NI35; [1]): below the threshold; pKd (SNTB1, Q13884; [1]): below the threshold; pKd (TIAM2, Q8IVF5; [1]): below the threshold; pKd (MAGI2_6, Q86UL8; [1]): below the threshold; pKd (CARD11, Q9BXL7; [1]): below the threshold; pKd (LIN7A, O14910; [1]): below the threshold; pKd (NHERF3_4, Q5T2W1; [1]): 3.7; pKd (GRIP1_5, Q9Y3R0; [1]): below the threshold; pKd (MPDZ_5, O75970; [1]): below the threshold; pKd (GRID2IP_1, A4D2P6; [1]): below the threshold; pKd (GRASP, Q7Z6J2; [1]): 4; pKd (AHNAK1, Q09666; [1]): below the threshold; pKd (LIN7B, Q9HAP6; [1]): below the threshold; pKd (IL16_4, Q14005; [1]): below the threshold

With EVVHTPETSV [SLC16A3, O15427] as the binder, how does the pKd (Inadl_9, Q8NI35; [2]) read?
Its pKd is “below the threshold”.

And the pKd (ARHGAP21, Q5T5U3; [2])?
The pKd was “below the threshold”.

And the pKd (PDZRN4_1, Q6ZMN7; [2])?
The pKd was 4.5.

And the pKd (PICK1, Q9NRD5; [2])?
Its pKd is “below the threshold”.

What about the pKd (HTRA3, P83110; [2]) of the same binder?
Its pKd is “below the threshold”.

And the pKd (SNTG1, Q9NSN8; [2])?
The pKd was 4.71.

What about the pKd (LRRC7, Q96NW7; [2]) of the same binder?
The pKd was “below the threshold”.

What about the pKd (LNX2_3, Q8N448; [2]) of the same binder?
Its pKd is “below the threshold”.

What about the pKd (TJP2_1, Q9UDY2; [2]) of the same binder?
The pKd was “below the threshold”.

What about the pKd (MAGI1_1, Q96QZ7; [2]) of the same binder?
Its pKd is “below the threshold”.

What about the pKd (Inadl_1, Q8NI35; [2]) of the same binder?
Its pKd is “below the threshold”.

What about the pKd (SNTB1, Q13884; [2]) of the same binder?
Its pKd is 4.76.

What about the pKd (TIAM2, Q8IVF5; [2]) of the same binder?
The pKd was “below the threshold”.

And the pKd (MAGI2_6, Q86UL8; [2])?
Its pKd is 4.14.

And the pKd (CARD11, Q9BXL7; [2])?
The pKd was “below the threshold”.

And the pKd (LIN7A, O14910; [2])?
The pKd was “below the threshold”.

What about the pKd (NHERF3_4, Q5T2W1; [2]) of the same binder?
The pKd was “below the threshold”.

And the pKd (GRIP1_5, Q9Y3R0; [2])?
The pKd was “below the threshold”.

What about the pKd (MPDZ_5, O75970; [2]) of the same binder?
Its pKd is “below the threshold”.

And the pKd (GRID2IP_1, A4D2P6; [2])?
The pKd was “below the threshold”.

And the pKd (GRASP, Q7Z6J2; [2])?
The pKd was “below the threshold”.

What about the pKd (AHNAK1, Q09666; [2]) of the same binder?
Its pKd is “below the threshold”.

What about the pKd (LIN7B, Q9HAP6; [2]) of the same binder?
Its pKd is 3.61.

And the pKd (IL16_4, Q14005; [2])?
Its pKd is “below the threshold”.

Which pKd (Inadl_9, Q8NI35; [3]) does the source give for GYDWGPATDL [TJP3, O95049] here?
Its pKd is 3.6.

And the pKd (ARHGAP21, Q5T5U3; [3])?
Its pKd is “below the threshold”.

And the pKd (PDZRN4_1, Q6ZMN7; [3])?
The pKd was “below the threshold”.

And the pKd (PICK1, Q9NRD5; [3])?
Its pKd is “below the threshold”.

And the pKd (HTRA3, P83110; [3])?
Its pKd is “below the threshold”.

And the pKd (SNTG1, Q9NSN8; [3])?
The pKd was 4.33.

What about the pKd (LRRC7, Q96NW7; [3]) of the same binder?
Its pKd is 3.7.

What about the pKd (LNX2_3, Q8N448; [3]) of the same binder?
The pKd was “below the threshold”.

What about the pKd (TJP2_1, Q9UDY2; [3]) of the same binder?
The pKd was “below the threshold”.

And the pKd (MAGI1_1, Q96QZ7; [3])?
The pKd was “below the threshold”.

What about the pKd (Inadl_1, Q8NI35; [3]) of the same binder?
Its pKd is “below the threshold”.

What about the pKd (SNTB1, Q13884; [3]) of the same binder?
The pKd was 4.08.

What about the pKd (TIAM2, Q8IVF5; [3]) of the same binder?
Its pKd is “below the threshold”.

And the pKd (MAGI2_6, Q86UL8; [3])?
Its pKd is 5.24.

And the pKd (CARD11, Q9BXL7; [3])?
The pKd was “below the threshold”.

And the pKd (LIN7A, O14910; [3])?
Its pKd is 3.66.

What about the pKd (NHERF3_4, Q5T2W1; [3]) of the same binder?
Its pKd is “below the threshold”.

What about the pKd (GRIP1_5, Q9Y3R0; [3]) of the same binder?
The pKd was “below the threshold”.

What about the pKd (MPDZ_5, O75970; [3]) of the same binder?
The pKd was “below the threshold”.

What about the pKd (GRID2IP_1, A4D2P6; [3]) of the same binder?
The pKd was “below the threshold”.

What about the pKd (GRASP, Q7Z6J2; [3]) of the same binder?
Its pKd is 4.14.

And the pKd (AHNAK1, Q09666; [3])?
Its pKd is “below the threshold”.

And the pKd (LIN7B, Q9HAP6; [3])?
Its pKd is “below the threshold”.

What about the pKd (IL16_4, Q14005; [3]) of the same binder?
The pKd was “below the threshold”.
